Test results: patent US20210017265A1 (RIKEN, published 2021)
Each block holds one molecule with its values, some of them ahead of it.

Assays:
[1] = target: human TGF-β1-LAP (amino acid residues position-30 to position-390), recombinant, Example 4 (human) (UniProt P01137); experiment: SPR, Biacore T200; antibody immobilised on CM5, analyte 1.56-25 nM
[2] = target: complex of human TGF-β1 LAP-D and A2D109 antibody Fab fragment (human) (UniProt P01137); experiment: SPR, Biacore T200; antibody immobilised on CM5, analyte is the preformed LAP/A2D109 Fab complex, 1.56-25 nM
Sequence of complex of human TGF-β1 LAP-D and A2D109 antibody Fab fragment (human) (P01137 30-390, one chain of several): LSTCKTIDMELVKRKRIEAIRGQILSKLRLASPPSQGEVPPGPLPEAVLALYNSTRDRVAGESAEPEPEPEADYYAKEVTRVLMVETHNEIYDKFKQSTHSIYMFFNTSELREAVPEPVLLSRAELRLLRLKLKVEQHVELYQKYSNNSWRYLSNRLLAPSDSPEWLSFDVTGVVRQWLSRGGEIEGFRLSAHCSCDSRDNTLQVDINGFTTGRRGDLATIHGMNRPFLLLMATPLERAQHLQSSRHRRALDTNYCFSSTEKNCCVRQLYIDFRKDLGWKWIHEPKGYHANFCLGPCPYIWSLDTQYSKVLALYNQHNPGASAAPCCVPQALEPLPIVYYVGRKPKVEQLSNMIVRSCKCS

[3] = target: T1, complex of human TGF-β1 LAP-D and A2D109 antibody Fab fragment (human, UniProt P01137 30-390); experiment: as above
T1 construct: Preformed complex, mixed 1:1 by moles and purified by gel filtration; Stated molecular weight 89514 Da; Used as the SPR analyte; also called TGF-β LAP-A2D109Fab; complex of human TGF-β1 LAP and A2D109 Fab
T1 sequence (P01137 30-390, one chain of several): as above
Experimental: (§1) Each of the anti-LAP-D antibody (A10) and the BAM2462 antibody was immobilized on a Biacore (registered trademark) sensor chip Series S Sensor Chip CM5 (manufactured by GE Healthcare). The amounts of these antibodies immobilized were 2027 RU and 310 RU, respectively. Each of a solution of human TGF-β1 LAP and a solution of a complex of human TGF-β1 LAP and A2D109 Fab was diluted with a buffer composed of 10 mM of HEPES-NaOH (pH 7.5), 150 mM of NaCl, 3 mM of EDTA and 0.005% of Surfactant P-20 to prepare solutions having various concentrations. Each of these solutions was fed to Biacore (registered trademark) T200 (manufactured by GE Healthcare). The analyte concentration in each of the solutions and the measurement conditions are shown below. Measurement data were analyzed using Biacore (registered trademark) Evaluation software to acquire date on the affinity of each of the antibodies.

[4] = target: T2, human TGF-β1-LAP (amino acid residues position-30 to position-390), recombinant, Example 4 (human, UniProt P01137 30-390); experiment: SPR, Biacore T200; antibody immobilised on CM5, analyte 1.56-25 nM
T2 construct: Expressed in HEK293F cells behind an Igk signal with a TEV-cleavable His tag, which was cut off; Stated molecular weight 41653 Da; also called human TGF-β1 LAP-D; TGF-β LAP
T2 sequence (P01137 30-390): as the sequence (P01137 30-390, one chain of several) above
Experimental: as §1

[5] = target: T2, human TGF-β1-LAP (amino acid residues …); experiment: complex formation, gel filtration
Experimental: A Fab fragment (A2D109 Fab) was prepared from the A2D109 antibody using Pierce (trademark) Mouse IgG1 Fab and F(ab′)2 Preparation Kit (manufactured by Thermo Fisher). The concrete operation of the procedure was carried out in accordance with the manual included in the kit. A reaction solution produced by the procedure was purified by gel filtration using Superdex 200 Increase 10/300 GL (manufactured by GE Healthcare). A 50-kDa elution fraction was collected, and the fraction was used as A2D109 Fab. Purified recombinant TGF-β1-LAP and purified A2D109 Fab were mixed together at a molar mixing ratio of 1:1. A complex thus produced was purified by gel filtration chromatography (HiLoad 16/600 Superdex 200 pg, manufactured by GE Healthcare) using a column equilibrated with a buffer composed of 20 mM Tris-HCl (pH 8.0), 150 mM NaCl and 10% glycerol.

Sequence of human TGF-β1-LAP (amino acid residues position-30 to position-390), recombinant, Example 4 (human) (P01137 30-390): as the sequence (P01137 30-390, one chain of several) above

Kd [1]: 0.0167 nM
koff [1]: 2.34e-05 s⁻¹
kon [1]: 1.4e+06 M⁻¹ s⁻¹
Kd [2]: 0.345 nM
koff [2]: 0.000154 s⁻¹
kon [2]: 447000 M⁻¹ s⁻¹
Molecule: anti-human LAP TGF-β1 antibody (BAM2462, manufactured by R&D Systems)

koff [3]: 0.000201 s⁻¹
kon [3]: 304000 M⁻¹ s⁻¹
Kd [4]: 0.214 nM
koff [4]: 4.17e-05 s⁻¹
kon [4]: 195000 M⁻¹ s⁻¹
B1: anti-LAP-D antibody (A10) (antibody, mouse IgG1, kappa, V domains shown)
VH: QVQLQQPGAELVRPGASVKLSCKTSGYSFTRFWMNWVRQRPGQGLEWIGMIHSSDSITRLNQKFKDKATLTLDYSSSTAYMQLSSPTSEDSAVYYCARGYDEYSAMDYWGQGTSVPVSS
VL: DIQMTQSPSSLSASLGERVSLTCRASHEISGYLGWLQRQPDGTIKRLIYAASTLDSGVPKRFSGSRSGSDYSLTISSLESEDFADYYCLQYASYPFTFGSGTKLEVKR
notes: Biotin-labelled when used as ELISA detection antibody; immobilised on a CM5 chip in SPR; also called isolated monoclonal antibody of the present embodiment

binding result [5]: binds
B2: A2D109 antibody Fab fragment (Fab, V domains shown)
VH: EVQLQQSGAELVRPGASVKLSCKASGYTFTSYWMNWVKQRPGQGLEWIGMIDPSDSETHYNQMFKDKATLTVDKSSSTAYMQLSSLTSEDSAVYYCVNWPYALDYWGQGTSVTVSS
VL: QIVLTQSPAIMSASPGEKVTMTCSASSSVSYMHWFQQKPGTSPKLWIYSTSNLASGVPARFSGSGSGTSYSLTISRMEAEDAATYYCQQRSSYPFTFGSGTKLEIKR
notes: Fab made from the mouse A2D109 antibody with a Mouse IgG1 Fab preparation kit; 50-kDa gel filtration fraction; the constant parts of the Fab are not; also called A2D109 Fab; A2D109Fab
